Data: article PMC7878476, “Regulatory inter-domain interactions influence Hsp70 recruitment to the DnaJB8 chaperone” (Nature Communications, 2021)
Several values for one entry are separate records, joined by “and”; a condition that tells them apart may be missing. Equal entries are not always repeated.

B1: isolated C-terminal domain of DnaJB8, CTD_(170–232) (domain or fragment, human, UniProt Q8NHS0 170-232, looked up)
chain: GGSSSGSSGFKSVMSSTEMINGHKVTTKRIVENGQERVEVEEDGQLKSVTVNGKEQLKWMDSK
notes: source: E. coli BL-21 (DE3), purified (TALON, Superdex 200)
B2: DnaJB8–mClover3 fusion protein (natural protein, human, UniProt Q8NHS0 1-232, looked up)
chain: MANYYEVLGVQASASPEDIKKAYRKLALRWHPDKNPDNKEEAEKKFKLVSEAYEVLSDSKKRSLYDRAGCDSWRAGGGASTPYHSPFDTGYTFRNPEDIFREFFGGLDPFSFEFWDSPFNSDRGGRGHGLRGAFSAGFGEFPAFMEAFSSFNMLGCSGGSHTTFSSTSFGGSSSGSSGFKSVMSSTEMINGHKVTTKRIVENGQERVEVEEDGQLKSVTVNGKEQLKWMDSK
notes: also called DnaJB8–Clover; source: HEK293T polyclonal lentiviral cell line, isolated from lysate with His-tagged anti-GFP nanobody on Ni-NTA resin
B3: recombinant full-length DnaJB8 (wild type) (natural protein, human, UniProt Q8NHS0 1-232, looked up)
chain: B2 chain
notes: pET-29b; no tag removal is described; also called WT DnaJB8; source: E. coli BL-21 (DE3), purified from the insoluble fraction (8 M guanidinium HCl, Ni-NTA), dialysed, lyophilised
B4: FITC-labeled JD_(1–82) of DnaJB8 (domain or fragment, human, UniProt Q8NHS0 1-82, looked up)
chain: MANYYEVLGVQASASPEDIKKAYRKLALRWHPDKNPDNKEEAEKKFKLVSEAYEVLSDSKKRSLYDRAGCDSWRAGGGASTP
modifications: FITC (labeled with 10× FITC-maleimide; site not stated)
notes: DnaJB8, human, J-domain, residues 1-82; Same construct as m4, with the fluorescein label; also called JD_(1–82)-FITC; JD_(1–82)–FITC; source: E. coli BL-21 (DE3), purified (TALON, Superdex 200), labeled with FITC-maleimide, excess dye removed by Superdex 75

Legend:
[1] = target: B4; assay: fluorescence polarisation; 0.2 μM FITC-JD_(1–82) with a titration of Hsp70 or CTD_(170–232) (150–0 μM) in 1× PBS, 1 mM TCEP, pH 7.4; one site-specific binding fit; conditions: both partners purified
[2] = target: the molecule itself; assay: cross-linking; DnaJB8–Clover held on anti-GFP nanobody/Ni-NTA beads, 1× PBS, 57 mM ADH + 36 mM DMTMM, 1 min at 37 °C; eluate analysed by MS and western blot
[3] = target: the molecule itself; assay: dynamic light scattering; 1.2 mg/mL in 1× PBS, 1 mM DTT, pH 7.4, room temperature, time course over about 20 h; 150 mM or 285 mM NaCl for full-length DnaJB8
[4] = target: T1, human Hsp70 (HspA1A) (human, UniProt P0DMV8 1-641); assay: fluorescence polarisation; 0.2 μM FITC-JD_(1–82) with a titration of Hsp70 or CTD_(170–232) (150–0 μM) in 1× PBS, 1 mM TCEP, pH 7.4; one site-specific binding fit; conditions: both partners purified
T1 construct: HspA1A (Hsp70), human; HspA1A gene cloned into pMCSG7; no tag cleavage is described; source: E. coli BL-21 (DE3), purified (TALON, HiTrap Q anion exchange, Superdex 200)
T1 sequence (P0DMV8 whole entry): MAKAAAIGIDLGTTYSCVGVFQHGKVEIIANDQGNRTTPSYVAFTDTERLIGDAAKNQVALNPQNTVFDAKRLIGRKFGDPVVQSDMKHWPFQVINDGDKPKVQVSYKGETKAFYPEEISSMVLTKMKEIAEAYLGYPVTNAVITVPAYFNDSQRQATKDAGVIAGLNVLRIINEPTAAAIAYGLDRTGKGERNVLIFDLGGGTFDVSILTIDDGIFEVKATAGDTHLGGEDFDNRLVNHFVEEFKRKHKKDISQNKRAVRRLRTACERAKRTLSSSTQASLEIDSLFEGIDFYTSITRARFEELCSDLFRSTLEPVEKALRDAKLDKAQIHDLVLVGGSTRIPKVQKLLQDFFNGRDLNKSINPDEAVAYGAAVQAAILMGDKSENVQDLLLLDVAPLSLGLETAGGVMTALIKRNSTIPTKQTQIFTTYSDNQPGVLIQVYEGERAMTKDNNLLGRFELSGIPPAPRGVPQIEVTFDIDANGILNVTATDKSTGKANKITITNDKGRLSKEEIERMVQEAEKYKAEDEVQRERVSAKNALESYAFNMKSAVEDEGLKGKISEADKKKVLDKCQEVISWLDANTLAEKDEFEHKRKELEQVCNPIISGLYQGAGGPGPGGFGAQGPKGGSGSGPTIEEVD

For B1, the Kd [1] was 4.4 µM and 6.21 µM and 4.43 µM.

B2: binds [2].

B3: binds [3].

In the case of B4, the Kd [4] is reported as 0.413 ± 0.057 µM.
